Earlier results in paper PMC6006206.

Biological target: SufE (UniProt A7ZME4)
Chain of UniProt A7ZME4 (A7ZME4 whole entry): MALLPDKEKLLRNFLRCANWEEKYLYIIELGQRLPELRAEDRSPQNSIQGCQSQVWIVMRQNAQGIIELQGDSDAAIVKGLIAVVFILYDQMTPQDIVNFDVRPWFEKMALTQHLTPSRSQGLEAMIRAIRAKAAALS

Question: For SufS (from UniProt A7ZME5), which Kd is on record?
Answer: 0.36 µM
